From patent publication US20130034559A1 (AstraZeneca / MedImmune, published 2013)
Changes are numbered by the printed parent chain.

T1: human B7-DC on 293T cells (human, UniProt Q9BQ51 20-273)
T1 construct: whole, on cells; also called PD-L2
T1 sequence (looked up): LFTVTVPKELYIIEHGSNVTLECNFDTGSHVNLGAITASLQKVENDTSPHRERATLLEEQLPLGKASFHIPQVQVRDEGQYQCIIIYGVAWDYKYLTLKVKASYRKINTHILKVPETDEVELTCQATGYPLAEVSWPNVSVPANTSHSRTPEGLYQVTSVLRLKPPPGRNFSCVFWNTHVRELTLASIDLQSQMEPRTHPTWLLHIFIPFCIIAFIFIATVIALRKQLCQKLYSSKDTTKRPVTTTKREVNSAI

B1: 3.15G8 (antibody, IgG4, V domains shown)
VH: EVQLVESGGGLVQPGGSLRLSCAASGFTFSSYWMSWVRQAPGKGLEWVANIKQDGGEKYYVDSVKGRFTISRDNAKNSLFLQMNSLRAEDTAVYYCARVQLYSDYFDYWGQGTLVTVSS
VL: DIQMTQSPSSVSASVGDRVTITCRASQGISSWLAWYQQKSGKAPKLLIYAASGLQSGVPSRFSGSGSGTDFTLTISSLQPEDLATYYCQQSHSLPPTFGQGTKVEIK
notes: also called mAb 3.15G8
B2: 2.20A8 (antibody, IgG2, V domains shown)
VH: EVQLLESGGGLVQPGGSLRLSCAASGFTFSNYAMSWVRQAPGKGLEWVSAIRGSGGSTYYADSVKGRFTISRDNSKNTLYLQMNSLRAEDTAVYYCAKDLHYDSSGYLDYWGQGTLVTVSS
VL: B1 VL with S30R, S40P, A51I, G53R, L83F, S91A, H92N, L94F, P96L, Q100G
notes: also called mAb 2.20A8
B3: 2.14H9 (antibody, IgG2, V domains shown)
VH: EVQLVESGGGLVQPGGSLRLSCAASGFTFSRYWMSWVRQAPGKGLEWVANIKQDGSEKYYVDSVKGRFTISRDNAKNSLYLQMNSLRAEDTAVYYCAREGGWFGELAFDYWGQGTLVTVSS
VL: EIVLTQSPGTLSLSPGERATLSCRASQRVSSSYLAWYQQKPGQAPRLLIYDASSRATGIPDRFSGSGSGTDFTLTISRLEPEDFAVYYCQQYGSLPWTFGQGTEVEIK
notes: also called mAb 2.14H9
B4: 2.7A4 (antibody, IgG2, V domains shown)
VH: EVQLVESGGGLVKPGGSLRLSCAASGFTFSTYSMNWVRQAPGKGLEWVSSISSSGDYIYYADSVKGRFTISRDNAKNSLFLQMNSLKAEDTAVYYCARDLVTSMVAFDYWGQGTLVTVSS
VL: SYELTQPPSVSVSPGQAARITCSGDALPQKYVFWYQQKSGQAPVLVIYEDSKRPSGIPERFSGSSSGTMATLTISGAQVEDEADYYCYSTDRSGNHRVFGGGTRLTVL
notes: also called mAb 2.7A4
B5: 2.9D10 (antibody, V domains shown)
VH: EVQLVESGGGLVQPGGSLRLSCAASGFTFSSYWMSWVRQAPGKGLEWVANIKQDGGEQYYVDSVKGRFTISRDNAKNSLYLQMNSLRAEDTAVYYCARDWNYGYYDMDVWGQGTTVTVSS
VL: EIVLTQSPGTLSLSPGERATLSCRASQSVSSNYLAWFQQKPGQAPRLLIFGTSSRATGIPDRFSGSGSGTDFTLTISRLEPEDFAVYYCQQYGSSIFTFGPGTKVDIK
notes: Tested as hybridoma supernatant or purified antibody; also called mAb 2.9D10
B6: 3.18G1 (antibody, V domains shown)
VH: EVQLLESGGDLVQPGGSLRLSCAASGFTFNSYAMSWVRQAPGKGLEWVSTISGSGGFTFSADSVKGRFTISRDNSKNTLFLQMNSLRVEDSAVYSCAKVLVGFNNGCWDYWGQGTLVTVSS
VL: SYVLTQPPSVSVAPGQTARITCGGNNIGSKSVHWYQQKPGQAPVLVVYDDSDRPSGIPERFSGSNSGNTATLTISRVEAGDEADYYCQVWDSSNDHVVFGGGTKLTVL
notes: also called mAb 3.18G1

Legend:
[1] = target: T1, human B7-DC on 293T cells; assay: FACS, 5 µg/ml antibody, 293T cells transfected with human B7-DC
Experimental: (§1) The ability of the purified antibodies to bind to human B7-H1, B7-DC, mouse B7H1 and cynomolgus monkey B7-H1 was determined by FACS analysis. […] Mouse J558 cells expressing mouse B7-H1 were obtained from ATCC (catalog #TIB-6). Cells were resuspended in PBS containing 2% FBS (FACS buffer) and seeded at 50000 cells/well into V-bottomed plates. Anti-B7-H1 and isotype control antibodies diluted in FACS buffer were added at a final concentration of 5 μg/ml and plates were incubated for 1 h at 4° C. […] Mouse anti-human B7-DC (PD-L2) antibody (R&D systems cat #MAB1224, detected with goat anti-mouse Fc Cy5, Jackson Immunoresearch) was used as a positive control for B7-DC expression. PE-conjugated rat anti-mouse B7-H1 antibody (eBioscience, clone M1H5, detected with goat anti-rat Fc Cy5, Jackson Immunoresearch) was used as a positive control for mouse B7-H1 expression.

[2] = target: T2, cynomolgus monkey B7-H1 expressed on cells (cynomolgus monkey, UniProt G7PSE7 19-290); assay: FACS, 1 µg/ml antibody, anti-CD3-activated cynomolgus monkey T cells
T2 construct: whole, on cells; also called cyno B7-H1; cynomologus B7-H1
Experimental: For activation of cynomolgus monkey T cells 96-well high binding plates were incubated with 100 μl/well of goat anti-mouse IgG Fc antibody diluted at 1 ug/ml in PBS at 4 C overnight. […] Cynomolgus monkey PBMC were isolated from peripheral blood (Bioreclamation, catalog #CYNWBCPT). Anti-CD3 mAb coated plates were washed with PBS and isolated PBMC were added in 200 ul of ICM media at ˜200000 cells/well and cultured for 72 hours. Cells were then harvested, washed in FACS buffer and mixed with diluted purified anti-B7-H1 antibodies or irrelevant human IgG2 or IgG4 antibodies at a final concentration of 1 ug/ml in 96-well V-bottom assay plate (50 ul/well). […] Cells were incubated for 1 hour at 4° C. before being washed again with FACS buffer and being read on a FACSCalibur instrument. Monkey T lymphocyte population was selected for analysis based on forward and side scatter as well as positive staining for CD3 marker and negative staining for 7-AAD.

[3] = target: T3, human B7-H1 expressed on cells (human, UniProt Q9NZQ7 19-290); assay: FMAT, hybridoma supernatant, 293T cells expressing human B7-H1
T3 construct: whole, on cells; also called PD-L1; huB7-H1
Experimental: (§2) Immediately after plating, 10 μl/well of hybridoma supernatants were added and plates incubated for 1.5 hr at room temperature.

[4] = target: T4, mouse B7-H1 on J558 cells (mouse, UniProt Q9EP73 19-290); assay: FACS, 5 µg/ml antibody, J558 cells expressing mouse B7-H1
T4 construct: whole, on cells
Experimental: as §1

[5] = target: T1, human B7-DC on 293T cells; assay: FACS on 293T cells transfected with human B7-DC
Experimental: as §1

[6] = target: T3, human B7-H1 expressed on cells; assay: cell ELISA: biotinylated PD-1/Fc (1.25 ug/ml) on CHO-huB7-H1 cells after hybridoma supernatant (1:5); 0% = 100% inhibition
Experimental: 25000 cells/well were plated in 50 μl of media into wells of a 384-well tissue culture plate (Corning Costar, catalog #3712). Next day, 50 μl/well of diluted (1:5) hybridoma supernatant was added and plates were incubated at 4 C for 1 hour on a shaker. […] Cells were washed and fixed in 100 ul of PBS containing 3.7% formaldehyde and 3% bovine serum albumin for 20 min at room temperature. Cells were washed and incubated in 100 ul of PBS containing 0.6% H2O2 and 3% bovine serum albumin for 10 min at room temperature. Cells were washed and incubated in 50 μl of horseradish peroxidase-conjugated streptavidin diluted at 1:4000 for 30 min at 4° C. Cells were washed before signal detection.

[7] = target: T3, human B7-H1 expressed on cells; assay: FACS competition: inhibition of biotinylated PD-1/Fc (10 ug/ml) binding to human B7-H1 on ES-2 cells
Experimental: Briefly, 50000 cells/well were plated in 50 μl of PBS into wells of a 384-well tissue culture plate (Corning Costar, catalog #3712). Next, 50 μl/well of a diluted monoclonal antibody was added at final concentration of […], 0.00016 nM and plates were incubated at 4 C for 1 hour. […] Cells were washed once and 100 μl/well of Cy5-conjugated streptavidin was added and plates were incubated at 4 C for 15 min before being washed again with PBS containing 2% FCS and being read on a FACSCalibur instrument.

[8] = target: T2, cynomolgus monkey B7-H1 expressed on …; assay: FMAT, hybridoma supernatant, 293T cells expressing cynomolgus monkey B7-H1
Experimental: as §2

[9] = target: T4, mouse B7-H1 on J558 cells; assay: FACS on J558 cells expressing mouse B7-H1
Experimental: as §1

[10] = target: T3, human B7-H1 expressed on cells; assay: FACS, 1 µg/ml antibody, anti-CD3-activated human T cells
Experimental: 96-well high binding plates were incubated with 100 μl/well of anti-CD3 antibody diluted at 1 ug/ml in PBS (OKT3 clone, eBioscience, catalog #160037) at 4 C overnight. Human T cells were isolated from frozen leukopack using T cell enrichment kit (StemCell Technologies, catalog #19051). Anti-CD3 mAb coated plates were washed with PBS and purified T cells were added in 200 ul of ICM media at 360000 cells/well and cultured for 72 hours. T cells were then harvested, washed in FACS buffer and mixed with diluted purified anti-B7-H1 antibodies or irrelevant human IgG2 or IgG4 antibodies at final concentration of 1 ug/ml in 96-well V-bottom assay plate (50 ul/well). […] Cells were incubated for 30 min at 4° C. before being washed again with FACS buffer and being read on a FACSCalibur instrument. Live lymphocyte population was selected for analysis based on forward and side scatter as well as negative staining for 7-AAD.

[11] = target: T3, human B7-H1 expressed on cells; assay: FACS, 5 µg/ml antibody, 293T cells transfected with human B7-H1
Experimental: as §1

T3 sequence (Q9NZQ7 19-290): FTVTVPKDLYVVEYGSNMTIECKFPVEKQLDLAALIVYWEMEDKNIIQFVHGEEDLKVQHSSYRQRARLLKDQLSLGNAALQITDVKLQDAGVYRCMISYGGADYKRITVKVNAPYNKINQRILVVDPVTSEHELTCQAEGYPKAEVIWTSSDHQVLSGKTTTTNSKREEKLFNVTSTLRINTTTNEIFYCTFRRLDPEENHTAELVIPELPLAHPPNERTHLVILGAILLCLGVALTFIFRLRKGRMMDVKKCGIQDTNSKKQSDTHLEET
T4 sequence (Q9EP73 19-290): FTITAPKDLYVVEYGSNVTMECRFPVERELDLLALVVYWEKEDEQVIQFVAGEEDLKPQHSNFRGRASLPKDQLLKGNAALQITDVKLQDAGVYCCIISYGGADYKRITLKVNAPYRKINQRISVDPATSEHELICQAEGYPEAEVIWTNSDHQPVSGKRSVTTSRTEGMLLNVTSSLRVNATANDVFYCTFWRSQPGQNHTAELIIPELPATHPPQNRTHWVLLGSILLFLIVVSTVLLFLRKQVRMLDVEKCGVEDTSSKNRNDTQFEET
T2 sequence (G7PSE7 entry or part of it): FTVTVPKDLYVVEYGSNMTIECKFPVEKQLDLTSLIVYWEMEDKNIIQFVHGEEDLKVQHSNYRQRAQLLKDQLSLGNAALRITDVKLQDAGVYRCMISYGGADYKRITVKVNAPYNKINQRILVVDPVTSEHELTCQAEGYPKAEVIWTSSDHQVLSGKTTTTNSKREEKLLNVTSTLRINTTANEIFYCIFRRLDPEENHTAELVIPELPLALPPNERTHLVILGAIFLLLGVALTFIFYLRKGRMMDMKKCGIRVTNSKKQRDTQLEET

Binder | geo mean [1] | geo mean [2] | Count [3] | FL1 [3] | FL1 × count [3] | geo mean [4] | binding result [5] | PD1-Fc binding to CHO-huB7-H1 cells (% of max) [6] | IC50 [7] | Count [8] | FL1 [8] | FL1 × count [8] | binding result [9] | geo mean [10] | geo mean [11]
B1 | 10.1 | 92.8 | 22 | 8810 | 194000 | 3.2 | no binding (tested: 5 µg/ml) | 4 % of max | 0.148 nM | 64 | 8650 | 553000 | no binding (tested: 5 µg/ml) | 48 | 1180
B2 | 9.5 | 80.7 | 34 | 10300 | 350000 | 3.3 | no binding (tested: 5 µg/ml) | 0 % of max | 0.198 nM | 65 | 7930 | 515000 | no binding (tested: 5 µg/ml) | 41 | 463
B3 | 11.4 | 106 | – | – | – | 3 | no binding (tested: 5 µg/ml) | – | – | 56 | 6780 | 380000 | no binding (tested: 5 µg/ml) | – | –
B4 | 10.5 | 104 | 37 | 6980 | 258000 | 3.2 | no binding (tested: 5 µg/ml) | 0 % of max | 0.077 nM | 59 | 8700 | 513000 | no binding (tested: 5 µg/ml) | 49 | 754
B5 | 8.7 | 107 | 22 | 7180 | 158000 | 3.2 | no binding (tested: 5 µg/ml) | -5 % of max | 0.109 nM | 54 | 5530 | 298000 | no binding (tested: 5 µg/ml) | 49 | 463
B6 | 9.7 | 94.6 | 21 | 10900 | 228000 | 3.2 | no binding (tested: 5 µg/ml) | 5 % of max | 0.14 nM | 66 | 10300 | 682000 | no binding (tested: 5 µg/ml) | 45 | 1540
